Five substances from patent EP4810057A1 can be followed below.

What all share (experiment): BLI, mAb on Protein A or AMC2 sensor, 1:1 fit
A general note: BLI is a label-free optical method that tracks binding on a fibre tip over time.

Experiment [1] concerns the target SCB-1019T(A) (respiratory syncytial virus subtype A (A2 strain)).
Experiment [2] has as its target SCB-1019T(B) (respiratory syncytial virus subtype B (Australian RSV B strain)).
Experiment [3] has as its target WT-F-Trimer (respiratory syncytial virus, subtype not given).
The target of experiment [4] is commercial GSK vaccine F protein control.

As a reminder, the Kd is the equilibrium constant for the complex coming apart. As a reminder, the koff is the rate constant with which the complex falls apart. A higher koff goes with fast dissociation. Broadly, the kon is a measure of how fast the partners come together. Read a low kon as slow association. For the substance AM22 (antibody), the Kd in experiment [1] was 209 pM; in experiment [2] it was 495 pM; in experiment [3] it was under 1 pM; in experiment [4] it was 644 pM. For the same substance, the RLU(nm) stood at 1.13 nm in experiment [1], 1.1 nm in experiment [2], 0.123 nm in experiment [3] and 1.42 nm in experiment [4]. The off-rate (koff) in experiment [1] was 2.1e-05 s⁻¹; in experiment [2], 3.99e-05 s⁻¹; in experiment [3] it was under 1e-07 s⁻¹; in experiment [4], 0.000196 s⁻¹. Besides, the kon in experiment [2] worked out at 80700 M⁻¹ s⁻¹; in experiment [4] it was 304000 M⁻¹ s⁻¹.

AM14 (antibody): in experiment [1], the Kd turned out to be 382 pM, the RLU(nm) was 0.693 nm and the off-rate (koff) was found to be 5.67e-05 s⁻¹. In experiment [2], this substance registered a Kd of 200 pM, an RLU(nm) of 0.534 nm, a koff of 4.43e-05 s⁻¹ and an association rate constant (kon) of 222000 M⁻¹ s⁻¹. In experiment [3], this substance displayed an RLU(nm) of 0 nm. In addition, in experiment [4], the equilibrium dissociation constant (Kd) stood at 484 pM, the RLU(nm) amounted to 1.34 nm and the off-rate constant (koff) is 0.000364 s⁻¹.

Take D25 (antibody): the Kd in experiment [1] is 114 pM; in experiment [2] it was 247 pM; in experiment [3], under 1 pM; in experiment [4], 221 pM. In addition, the RLU(nm) was 1.19 nm in experiment [1], 1.5 nm in experiment [2], 0.266 nm in experiment [3] and 1.11 nm in experiment [4]. Further, the koff in experiment [1] was 3.38e-05 s⁻¹; in experiment [2], 0.000112 s⁻¹; in experiment [3], under 1e-07 s⁻¹; in experiment [4], 0.000104 s⁻¹. In addition, the figures for the kon in experiment [1], in experiment [3] and in experiment [4] were 296000 M⁻¹ s⁻¹, 12100 M⁻¹ s⁻¹ and 472000 M⁻¹ s⁻¹, respectively.

As to hRSV90 (antibody), in experiment [1], the Kd was under 1 pM, the RLU(nm) was determined as 0.928 nm and the koff is under 1e-07 s⁻¹. In experiment [2], this substance showed a Kd of 1940 pM, an RLU(nm) of 0.068 nm, a koff of 0.00153 s⁻¹ and an on-rate constant (kon) of 788000 M⁻¹ s⁻¹. Also, in experiment [3], the Kd is 12700 pM, the RLU(nm) stood at 0.0884 nm, the off-rate constant (koff) was 0.000271 s⁻¹ and the on-rate (kon) was 21400 M⁻¹ s⁻¹. In experiment [4], this substance had a Kd of 771 pM, an RLU(nm) of 1.03 nm, a dissociation rate constant (koff) of 0.000218 s⁻¹ and an association rate constant (kon) of 282000 M⁻¹ s⁻¹.

MPE8 (antibody): the Kd in experiment [1] is under 1 pM; in experiment [2], 771 pM; in experiment [3], 22100 pM; in experiment [4], 2220 pM. Further, the RLU(nm) was 0.59 nm in experiment [1], 0.672 nm in experiment [2], 0.0968 nm in experiment [3] and 0.815 nm in experiment [4]. Besides, the dissociation rate constant (koff) in experiment [1] is under 1e-07 s⁻¹; in experiment [2], 3.43e-05 s⁻¹; in experiment [3], 0.000226 s⁻¹; in experiment [4], 0.000353 s⁻¹. In experiment [1], this substance had an on-rate constant (kon) of 4.12e+06 M⁻¹ s⁻¹.
